According to publication PMC4497409:

Target: T1, Norrin (Norrie Disease Protein), recombinant wild-type after removal of the SUMO fusion tag (human), Q00604
T1 chain: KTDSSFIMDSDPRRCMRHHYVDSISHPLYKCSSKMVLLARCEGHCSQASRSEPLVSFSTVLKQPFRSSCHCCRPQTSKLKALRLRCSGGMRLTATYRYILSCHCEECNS
Assay: SAXS; Norrin at 0.75 and 1.26 mg/ml in 10 mM HEPES, pH 7.5, 0.7 M NaCl, 0.5% CHAPS; 293 K
Settings: remark: other sources report otherwise

stoichiometry N: 2
B1: Norrin (Norrie Disease Protein), recombinant wild-type after removal of the SUMO fusion tag, Q00604 25-133 (ligand)
chain: KTDSSFIMDSDPRRCMRHHYVDSISHPLYKCSSKMVLLARCEGHCSQASRSEPLVSFSTVLKQPFRSSCHCCRPQTSKLKALRLRCSGGMRLTATYRYILSCHCEECNS
